Reference: IntAct's records for PubMed 28054552

B1: Hexokinase-1 (Homo sapiens), P19367 (parent)
chain: MIAAQLLAYYFTELKDDQVKKIDKYLYAMRLSDETLIDIMTRFRKEMKNGLSRDFNPTATVKMLPTFVRSIPDGSEKGDFIALDLGGSSFRILRVQVNHEKNQNVHMESEVYDTPENIVHGSGSQLFDHVAECLGDFMEKRKIKDKKLPVGFTFSFPCQQSKIDEAILITWTKRFKASGVEGADVVKLLNKAIKKRGDYDANIVAVVNDTVGTMMTCGYDDQHCEVGLIIGTGTNACYMEELRHIDLVEGDEGRMCINTEWGAFGDDGSLEDIRTEFDREIDRGSLNPGKQLFEKMVSGMYLGELVRLILVKMAKEGLLFEGRITPELLTRGKFNTSDVSAIEKNKEGLHNAKEILTRLGVEPSDDDCVSVQHVCTIVSFRSANLVAATLGAILNRLRDNKGTPRLRTTVGVDGSLYKTHPQYSRRFHKTLRRLVPDSDVRFLLSESGSGKGAAMVTAVAYRLAEQHRQIEETLAHFHLTKDMLLEVKKRMRAEMELGLRKQTHNNAVVKMLPSFVRRTPDGTENGDFLALDLGGTNFRVLLVKIRSGKKRTVEMHNKIYAIPIEIMQGTGEELFDHIVSCISDFLDYMGIKGPRMPLGFTFSFPCQQTSLDAGILITWTKGFKATDCVGHDVVTLLRDAIKRREEFDLDVVAVVNDTVGTMMTCAYEEPTCEVGLIVGTGSNACYMEEMKNVEMVEGDQGQMCINMEWGAFGDNGCLDDIRTHYDRLVDEYSLNAGKQRYEKMISGMYLGEIVRNILIDFTKKGFLFRGQISETLKTRGIFETKFLSQIESDRLALLQVRAILQQLGLNSTCDDSILVKTVCGVVSRRAAQLCGAGMAAVVDKIRENRGLDRLNVTVGVDGTLYKLHPHFSRIMHQTVKELSPKCNVSFLLSEDGSGKGAALITAVGVRLRTEASS
B2: Hexokinase-2 (Homo sapiens), P52789 (parent)
chain: MIASHLLAYFFTELNHDQVQKVDQYLYHMRLSDETLLEISKRFRKEMEKGLGATTHPTAAVKMLPTFVRSTPDGTEHGEFLALDLGGTNFRVLWVKVTDNGLQKVEMENQIYAIPEDIMRGSGTQLFDHIAECLANFMDKLQIKDKKLPLGFTFSFPCHQTKLDESFLVSWTKGFKSSGVEGRDVVALIRKAIQRRGDFDIDIVAVVNDTVGTMMTCGYDDHNCEIGLIVGTGSNACYMEEMRHIDMVEGDEGRMCINMEWGAFGDDGSLNDIRTEFDQEIDMGSLNPGKQLFEKMISGMYMGELVRLILVKMAKEELLFGGKLSPELLNTGRFETKDISDIEGEKDGIRKAREVLMRLGLDPTQEDCVATHRICQIVSTRSASLCAATLAAVLQRIKENKGEERLRSTIGVDGSVYKKHPHFAKRLHKTVRRLVPGCDVRFLRSEDGSGKGAAMVTAVAYRLADQHRARQKTLEHLQLSHDQLLEVKRRMKVEMERGLSKETHASAPVKMLPTYVCATPDGTEKGDFLALDLGGTNFRVLLVRVRNGKWGGVEMHNKIYAIPQEVMHGTGDELFDHIVQCIADFLEYMGMKGVSLPLGFTFSFPCQQNSLDESILLKWTKGFKASGCEGEDVVTLLKEAIHRREEFDLDVVAVVNDTVGTMMTCGFEDPHCEVGLIVGTGSNACYMEEMRNVELVEGEEGRMCVNMEWGAFGDNGCLDDFRTEFDVAVDELSLNPGKQRFEKMISGMYLGEIVRNILIDFTKRGLLFRGRISERLKTRGIFETKFLSQIESDCLALLQVRAILQHLGLESTCDDSIIVKEVCTVVARRAAQLCGAGMAAVVDRIRENRGLDALKVTVGVDGTLYKLHPHFAKVMHETVKDLAPKCDVSFLQSEDGSGKGAALITAVACRIREAGQR

Variants of: B1
Settings: with src_mouse Src

| Variant | effect of a mutation on the interaction |
| --- | --- |
| Y27F | with no effect |
| Y417F | with no effect |
| Y732F | disrupting interaction strength |

Variants of: B2
Settings: with src_mouse Src

| Variant | effect of a mutation on the interaction |
| --- | --- |
| Y686F | disrupting interaction strength |
